Molecular target: the molecule itself
Test: mass photometry; proteins at 1 nM in PBS (pH 7.4), 10 µl analysed over 10 min; monomer (a single disulphide-linked α-β structure) to dimer (two non-covalently associated α-β structures)

Protein	percent of species in solution that is dimer	stoichiometry N
clusterin purified from human plasma (natural protein, One 'monomer' is a single α-β structure joined by 5 disulfide bonds; The protein is N-glycosylated at six sites; also called pCLU; human plasma CLU) chain 1: DQTVSDNELQEMSNQGSKYVNKEIQNAVNGVKQIKTLIEKTNEERKTLLSNLEEAKKKKEDALNETRESETKLKELPGVCNETMMALWEECKPCLKQTCMKFYARVCRSGSGLVGRQLEEFLNQSSPFYFWMNGDRIDSLLENDRQQTHMLDVMQDHFSRASSIIDELFQDRFFTREPQDTYHYLPFSLPHRRPHFFFPKSRIVR chain 2: SLMPFSPYEPLNFHAMFQPFLEMIHEAQQAMDIHFHSPAFQHPPTEFIREGDDDRTVCREIRHNSTGCLRMKDQCDKCREILSVDCSTNNPSQAKLRRELDESLQVAERLTRKYNELLKSYQWKMLNTSSLLEQLNEQFNWVSRLANLTQGEDQYYLRVTTVASHTSDSDVPSGVTEVVVKLFDSDPITVTVPVEVSRKNPKFMETVAEKALQEYRKKHREE	~60%	2
wild type recombinant human clusterin with a twin Streptag at the C-terminus of the α-chain (natural protein, The tag is separated from the inter-chain cleavage motif by a 4-glycine spacer; About 90-95% of the protein is cleaved into α- and β-chains, and it is glycosylated; also called rCLU-αC-ST; rCLU-ST; source: MEXi293E cells, transfected, secreted into protein-free medium, purified (Streptactin-XT); not shown: twin Streptag, C-terminal, kept) chain 1: SLMPFSPYEPLNFHAMFQPFLEMIHEAQQAMDIHFHSPAFQHPPTEFIREGDDDRTVCREIRHNSTGCLRMKDQCDKCREILSVDCSTNNPSQAKLRRELDESLQVAERLTRKYNELLKSYQWKMLNTSSLLEQLNEQFNWVSRLANLTQGEDQYYLRVTTVASHTSDSDVPSGVTEVVVKLFDSDPITVTVPVEVSRKNPKFMETVAEKALQEYRKKHREE chain 2: DQTVSDNELQEMSNQGSKYVNKEIQNAVNGVKQIKTLIEKTNEERKTLLSNLEEAKKKKEDALNETRESETKLKELPGVCNETMMALWEECKPCLKQTCMKFYARVCRSGSGLVGRQLEEFLNQSSPFYFWMNGDRIDSLLENDRQQTHMLDVMQDHFSRASSIIDELFQDRFFTREPQDTYHYLPFSLPHRRPHFFFPKSRIVR	~60%	2
wild type recombinant human clusterin with the C-tag at the C-terminus of the β-chain (natural protein, The protein is cleaved into α- and β-chains and is glycosylated; also called rCLU-CT; source: MEXi293E cells, transfected, secreted into protein-free medium, purified (Capture Select C-tag column); not shown: C-tag (EPEA), C-terminal, kept) chain 1: SLMPFSPYEPLNFHAMFQPFLEMIHEAQQAMDIHFHSPAFQHPPTEFIREGDDDRTVCREIRHNSTGCLRMKDQCDKCREILSVDCSTNNPSQAKLRRELDESLQVAERLTRKYNELLKSYQWKMLNTSSLLEQLNEQFNWVSRLANLTQGEDQYYLRVTTVASHTSDSDVPSGVTEVVVKLFDSDPITVTVPVEVSRKNPKFMETVAEKALQEYRKKHREE chain 2: DQTVSDNELQEMSNQGSKYVNKEIQNAVNGVKQIKTLIEKTNEERKTLLSNLEEAKKKKEDALNETRESETKLKELPGVCNETMMALWEECKPCLKQTCMKFYARVCRSGSGLVGRQLEEFLNQSSPFYFWMNGDRIDSLLENDRQQTHMLDVMQDHFSRASSIIDELFQDRFFTREPQDTYHYLPFSLPHRRPHFFFPKSRIVR	~60%	2

Reference: publication PMC7455699, “Rapid high-yield expression and purification of fully post-translationally modified recombinant clusterin and mutants” (Scientific Reports, 2020)
